Measured values published in paper PMC2580030.
“And” between values parts separate entries of the source, which are not always exact repeats. Equal values may be shown once.

molecular target: recombinant soluble empty (peptide free) HLA-DR1 (human); assay: native gel or EMSA

Substance | t1/2
HA 306-318 P7 L→P peptide, fluorescein-labeled | 268 min
HA 306-318 P10 A→G peptide, fluorescein-labeled | 69 min
HA 306-318 P3 K→D peptide, fluorescein-labeled | 43.8 min
HA 306-318 P3,7 KL→DP peptide, fluorescein-labeled | 15.9 min
HA 306-318 P2,7,10 VLA→SPG peptide, fluorescein-labeled | 9.9 min
HA 306-318 P7,10 LA→PG peptide, fluorescein-labeled | 92.9 min
HA 306-318 P3,10 KA→DG peptide, fluorescein-labeled | 7.92 min
HA 306-318 P2,7 VL→SP peptide, fluorescein-labeled | 40.4 min
HA 306-318 P2,3 VK→SD peptide, fluorescein-labeled | 4.6 min
HA 306-318 P2,10 VA→SG peptide, fluorescein-labeled | 11.7 min

molecular target: recombinant soluble empty (peptide free) HLA-DR1 (human); assay: fluorescence polarisation

Substance | loss of bound peptide during the first 24 hr
FAM labeled P7 L→C HA peptide | 18% and 3%
